Starred links: 1 amine or outer side, 2 acyl side, 3 side chain; linkers in the order of their positions; H or OH if unused. Positions of bridges follow the written chain, without caps; N, C: chain ends. Non-standard residues stand in square brackets, D forms with d. Primed or numbered codes have the meaning given here. PyrS2″ = (S)-3-amino-1-((pent-4-en-1-yloxy)carbonyl)pyrrolidine-3-carboxylic acid (stapling residue), C=CCCCOC(=O)N1CC[C@@](N[*:1])(C(=O)[*:2])C1; B5(4) = 2,2-bis(4-pentenyl)glycine = 2-amino-2-(pent-4-en-1-yl)hept-6-enoic acid (stitching residue), C=CCCCC(CCCC=C)(N[*:1])C(=O)[*:2]; B5(20) = 2-amino-2-(pent-4-en-1-yl)hept-6-enoic acid = bis(4-pentenyl)glycine, stitching residue, C=CCCCC(CCCC=C)(N[*:1])C(=O)[*:2]; B5″ = 2,2-bis(4-pentenyl)glycine, stitching residue, C=CCCCC(CCCC=C)(N[*:1])C(=O)[*:2]; Phe(2-CONH2) = NC(=O)c1ccccc1C[C@H](N)C(=O)O; Phe(2-Cl) = N[C@@H](Cc1ccccc1Cl)C(=O)O; Phe(2-OMe) = COc1ccccc1C[C@H](N)C(=O)O; Bta = N[C@@H](Cc1csc2ccccc12)C(=O)O; αAllylPro = C=CC[C@@]1(C(=O)O)CCCN1; tBuAla = CC(C)(C)C[C@H](N)C(=O)O; 3Thi = N[C@@H](Cc1ccsc1)C(=O)O; Cha = N[C@@H](CC1CCCCC1)C(=O)O; S8 = C=CCCCCCC[C@](C)(N)C(=O)O; Thr(ol) = C[C@@H](O)[C@H](N)CO; Aib = CC(C)(N)C(=O)O
Assays:
[1] = target: T1, B-cat-Halo (NanoBRET construct expressed in HEK293 cells) (UniProt P35222 1-781); assay: cell-based or functional assay
T1 sequence (looked up): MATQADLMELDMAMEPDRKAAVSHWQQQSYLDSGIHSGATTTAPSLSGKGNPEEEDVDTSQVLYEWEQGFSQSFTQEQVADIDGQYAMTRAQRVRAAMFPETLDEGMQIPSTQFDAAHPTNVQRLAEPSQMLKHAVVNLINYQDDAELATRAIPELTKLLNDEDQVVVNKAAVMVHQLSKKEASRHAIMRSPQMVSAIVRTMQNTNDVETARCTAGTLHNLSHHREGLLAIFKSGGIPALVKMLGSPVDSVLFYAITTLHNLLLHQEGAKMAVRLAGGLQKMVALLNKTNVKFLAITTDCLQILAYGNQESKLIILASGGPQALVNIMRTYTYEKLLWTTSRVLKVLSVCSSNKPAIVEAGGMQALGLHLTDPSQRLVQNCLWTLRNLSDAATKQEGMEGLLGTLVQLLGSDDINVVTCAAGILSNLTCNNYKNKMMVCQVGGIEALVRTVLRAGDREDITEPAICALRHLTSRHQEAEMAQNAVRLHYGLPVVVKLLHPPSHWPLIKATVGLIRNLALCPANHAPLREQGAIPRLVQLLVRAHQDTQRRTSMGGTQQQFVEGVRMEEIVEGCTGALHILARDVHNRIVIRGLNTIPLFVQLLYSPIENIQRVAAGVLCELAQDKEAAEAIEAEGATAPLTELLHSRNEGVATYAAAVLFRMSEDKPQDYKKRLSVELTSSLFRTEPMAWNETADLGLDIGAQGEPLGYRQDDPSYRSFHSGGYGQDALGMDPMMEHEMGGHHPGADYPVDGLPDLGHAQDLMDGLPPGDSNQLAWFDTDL

[2] = target: T2, full-length beta-Catenin (Uniprot ID P35222) (Homo sapiens (Human), UniProt P35222 1-781); assay: FP competition: full-length beta-catenin 10 nM + 5FAM-TCF4(10-53) 10 nM
T2 construct: also called bCat; B-Catenin
T2 sequence: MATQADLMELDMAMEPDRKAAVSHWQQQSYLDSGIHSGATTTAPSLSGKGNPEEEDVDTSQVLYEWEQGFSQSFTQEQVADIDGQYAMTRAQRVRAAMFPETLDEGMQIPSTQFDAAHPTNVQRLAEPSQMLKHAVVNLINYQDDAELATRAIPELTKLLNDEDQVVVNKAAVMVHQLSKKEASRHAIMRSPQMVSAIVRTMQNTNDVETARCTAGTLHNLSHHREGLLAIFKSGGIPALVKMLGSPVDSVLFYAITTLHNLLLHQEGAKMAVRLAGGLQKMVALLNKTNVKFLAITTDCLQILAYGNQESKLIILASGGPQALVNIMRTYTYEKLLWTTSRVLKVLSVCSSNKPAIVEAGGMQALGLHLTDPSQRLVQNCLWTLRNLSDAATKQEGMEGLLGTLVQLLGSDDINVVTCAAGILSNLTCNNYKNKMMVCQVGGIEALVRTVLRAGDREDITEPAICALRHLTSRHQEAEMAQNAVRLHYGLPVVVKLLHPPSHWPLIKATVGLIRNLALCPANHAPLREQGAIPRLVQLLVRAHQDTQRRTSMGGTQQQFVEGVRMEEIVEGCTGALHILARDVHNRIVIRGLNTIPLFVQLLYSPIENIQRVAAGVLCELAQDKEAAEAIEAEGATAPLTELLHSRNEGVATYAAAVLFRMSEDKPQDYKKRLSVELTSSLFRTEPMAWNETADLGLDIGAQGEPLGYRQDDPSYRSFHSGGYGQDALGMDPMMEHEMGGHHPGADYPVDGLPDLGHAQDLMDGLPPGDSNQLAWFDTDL
Protocol: The plate was incubated protected from light for 60 minutes at 20° C. prior to read. Reads were performed on a CLARIOstar plate reader (BMG Labtech) in duplicate, and data were fitted to a 1:1 binding model with hill slope using an in-house script. All provided concentrations are final concentrations.

[3] = target: T3, B-cat-Halo (beta-catenin HaloTag construct expressed in HEK293 cells) (UniProt P35222 1-781); assay: cell-based or functional assay
T3 sequence (looked up): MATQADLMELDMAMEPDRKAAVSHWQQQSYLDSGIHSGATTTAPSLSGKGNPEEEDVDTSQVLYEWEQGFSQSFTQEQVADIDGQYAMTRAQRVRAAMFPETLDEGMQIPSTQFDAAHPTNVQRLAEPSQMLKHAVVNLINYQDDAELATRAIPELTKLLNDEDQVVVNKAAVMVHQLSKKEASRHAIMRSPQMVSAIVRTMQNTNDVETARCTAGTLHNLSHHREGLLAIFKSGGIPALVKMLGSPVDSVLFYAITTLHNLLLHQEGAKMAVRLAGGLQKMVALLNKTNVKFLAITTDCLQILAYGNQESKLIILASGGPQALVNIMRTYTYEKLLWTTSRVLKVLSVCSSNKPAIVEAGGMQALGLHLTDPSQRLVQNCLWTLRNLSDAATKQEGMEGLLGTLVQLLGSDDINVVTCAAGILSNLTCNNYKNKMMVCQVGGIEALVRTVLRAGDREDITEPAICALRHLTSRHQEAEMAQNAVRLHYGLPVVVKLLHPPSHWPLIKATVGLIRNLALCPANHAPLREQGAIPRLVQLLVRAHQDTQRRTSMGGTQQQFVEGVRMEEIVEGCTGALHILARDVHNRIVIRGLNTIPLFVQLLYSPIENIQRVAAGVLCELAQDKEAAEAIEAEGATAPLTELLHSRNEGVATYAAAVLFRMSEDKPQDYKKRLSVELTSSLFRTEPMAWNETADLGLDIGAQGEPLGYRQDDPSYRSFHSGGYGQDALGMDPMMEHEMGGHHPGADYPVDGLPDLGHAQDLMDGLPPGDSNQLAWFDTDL

[4] = target: T4, B-cat-Halo (UniProt P35222 1-781); assay: cell-based or functional assay
T4 sequence (looked up): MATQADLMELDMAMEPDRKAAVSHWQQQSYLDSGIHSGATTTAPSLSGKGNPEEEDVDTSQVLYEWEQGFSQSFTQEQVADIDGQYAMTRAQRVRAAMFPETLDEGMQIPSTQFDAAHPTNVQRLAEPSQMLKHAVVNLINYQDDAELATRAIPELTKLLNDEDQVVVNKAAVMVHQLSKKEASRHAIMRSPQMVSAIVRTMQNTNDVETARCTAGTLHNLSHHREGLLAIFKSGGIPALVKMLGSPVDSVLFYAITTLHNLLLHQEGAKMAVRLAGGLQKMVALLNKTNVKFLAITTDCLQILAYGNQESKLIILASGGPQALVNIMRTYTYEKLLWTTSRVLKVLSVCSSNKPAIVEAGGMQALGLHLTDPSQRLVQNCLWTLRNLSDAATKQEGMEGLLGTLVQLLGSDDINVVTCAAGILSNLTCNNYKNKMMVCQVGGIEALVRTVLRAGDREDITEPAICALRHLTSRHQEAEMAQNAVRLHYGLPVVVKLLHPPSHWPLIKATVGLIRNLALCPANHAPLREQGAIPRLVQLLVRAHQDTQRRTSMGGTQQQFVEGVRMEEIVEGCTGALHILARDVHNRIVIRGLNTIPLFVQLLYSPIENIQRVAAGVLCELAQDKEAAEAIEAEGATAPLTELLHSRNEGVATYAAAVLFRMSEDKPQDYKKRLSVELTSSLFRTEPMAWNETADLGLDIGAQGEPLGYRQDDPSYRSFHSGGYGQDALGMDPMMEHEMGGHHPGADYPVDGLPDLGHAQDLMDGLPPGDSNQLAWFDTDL

B1: I-516 (peptide)
peptide: Ac-[αAllylPro]DA[B5(20)]DEAAFN[S8][3Thi][Bta]H-NH2
modifications: staple 1-4, 4-11; also: later-eluting HPLC peak of staple isomers
NanoBRET Abs IC50 [1]: 30.5 µM

B2: I-512 (peptide)
peptide: Ac-[αAllylPro]DI[B5(20)]DEAAFN[S8][Phe(2-OMe)][Bta]H-NH2
modifications: staple 1-4, 4-11
notes: Stapled peptide composition
NanoBRET Abs IC50 [1]: 12.3 µM | IC50 [2]: 0.02 µM

B3: I-514 (peptide)
peptide: Ac-[αAllylPro]DI[B5(20)]DEAAFN[S8][Phe(2-CONH2)][Bta]H-NH2
modifications: staple 1-4, 4-11
notes: Stapled peptide composition
NanoBRET Abs IC50 [1]: > 20 µM | IC50 [2]: 0.03 µM

B4: I-1173 (peptide)
peptide: Ac-[αAllylPro]D[Cha][B5(4)]DTAAFT[PyrS2″][3Thi][Bta]Q-NH2
modifications: staple 1-4, 4-11
NanoBRET Abs IC50 [3]: 17.2 µM

B5: I-1195 (peptide)
peptide: Ac-[αAllylPro]D[tBuAla][B5″]DDAAFL[S8][3Thi][Bta]H-NH2
modifications: staple 1-4, 4-11
NanoBRET Abs IC50 [3]: 16.2 µM

B6: I-1177 (peptide)
peptide: Ac-[αAllylPro]D[tBuAla][B5(4)]DD[Aib]AFL[PyrS2″][3Thi][Bta]Q-NH2
modifications: staple 1-4, 4-11
NanoBRET Abs IC50 [3]: 4.3 µM

B7: I-1170 (peptide)
peptide: Ac-[αAllylPro]D[tBuAla][B5(4)]DTAAFT[PyrS2″][3Thi][Bta]S-NH2
modifications: staple 1-4, 4-11
NanoBRET Abs IC50 [3]: 13.5 µM

B8: I-1309 (peptide)
peptide: Ac-[αAllylPro]D[tBuAla][B5(4)]DTAAFT[PyrS2″][Phe(2-Cl)][Bta][Thr(ol)]
modifications: staple 1-4, 4-11
NanoBRET Abs IC50 (uM); B-cat-Halo / TCF4-Luc in HEK293 cells [4]: 28.6 µM

From patent US20240116985A1 (published 2024)
